Experimental findings from the supplement of paper PMC7125110 are described below.

± gives the standard error. For some of these results: This sample holds only a part of the variants without activity.

B1: glmS ribozyme (parent)
chain: AUAAAAGCGCCAGAACUACAGAAAUGUAGUUGACGAGGAGGAGGUUUAUCGAAUUUUCGGCGGAUGCCUCCAAA

Conditions in all cases: with glucosamine-6-phosphate
Series [1] covers variants of B1. As to the kind of experiment: kcat; higher = faster cleavage; RNA array. Put shortly:
(§1)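 On sequenced MiSeq chips, barcoded ribozyme variants were made in situ by E. coli RNA polymerase and followed at 37 °C through a hybridised Cy3 probe. Glucosamine-6-phosphate was flowed in at 40 μM to 10 mM in HEPES/KCl/Mg(OAc)2 buffer. Exponential fits to normalised per-tile medians gave kobs, and weighted Michaelis–Menten fits gave kcat and KM.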

The variants in series [2] derive from B1. As to the kind of experiment: KM; higher = weaker cofactor use; RNA array. In outline: as §1
The variants in series [3] derive from B1. As to the kind of experiment: self-cleavage kobs at 40 uM GlcN6P; higher = faster cleavage; RNA array. Put shortly: as §1
The variants in series [4] derive from B1. Nature of the series: self-cleavage kobs at 160 uM GlcN6P; higher = faster cleavage; RNA array. Put shortly:
as §1

In series [5] the parent is B1. As to the kind of experiment: self-cleavage kobs at 640 uM GlcN6P; higher = faster cleavage; RNA array. In outline:
as §1

The variants in series [6] derive from B1. Nature of the series: self-cleavage kobs at 2500 uM GlcN6P; higher = faster cleavage; RNA array. In outline: as §1
The variants in series [7] derive from B1. Nature of the series: self-cleavage kobs at 10000 uM GlcN6P; higher = faster cleavage; RNA array. Put shortly: as §1

What is called kcat is the number of substrate molecules converted per active site and unit of time at saturation. As a reminder, the KM is the concentration of substrate that gives half-maximal velocity. Take G40C U45A: the turnover number (kcat) with glucosamine-6-phosphate [1] came to 0.00147 ± 0.00022 s⁻¹. For the same variant, the KM with glucosamine-6-phosphate [2] amounted to 823 ± 200 µM. Further, the “self-cleavage kobs at 40 uM GlcN6P” value with glucosamine-6-phosphate [3] turned out to be 7.94e-05 ± 9.2e-06 s⁻¹. The “self-cleavage kobs at 160 uM GlcN6P” value with glucosamine-6-phosphate [4] is 0.000183 ± 3.5e-05 s⁻¹. Besides, the “self-cleavage kobs at 640 uM GlcN6P” value with glucosamine-6-phosphate [5] was 0.000631 ± 7.8e-05 s⁻¹. Also, the “self-cleavage kobs at 2500 uM GlcN6P” value in the series with glucosamine-6-phosphate [6] is 0.00123 ± 0.00018 s⁻¹. In addition, the “self-cleavage kobs at 10000 uM GlcN6P” value with glucosamine-6-phosphate [7] amounted to 0.00131 ± 0.00019 s⁻¹.
On to U30A U49G, for which, in the series with glucosamine-6-phosphate [1], the kcat is 0.000169 ± 3.4e-05 s⁻¹. For the same variant, in the series with glucosamine-6-phosphate [2], the KM was found to be 3780 ± 1600 µM. Moreover, in the series with glucosamine-6-phosphate [6], the “self-cleavage kobs at 2500 uM GlcN6P” value stood at 7.22e-05 ± 1.2e-05 s⁻¹. Moreover, the “self-cleavage kobs at 10000 uM GlcN6P” value in the series with glucosamine-6-phosphate [7] stood at 0.000119 ± 2.1e-05 s⁻¹.
U65A C67A: the kcat with glucosamine-6-phosphate [1] is 9.68e-05 ± 1.3e-05 s⁻¹. In the series with glucosamine-6-phosphate [3], the “self-cleavage kobs at 40 uM GlcN6P” value is 5.89e-05 ± 6.3e-06 s⁻¹. Besides, the “self-cleavage kobs at 160 uM GlcN6P” value with glucosamine-6-phosphate [4] is 9.4e-05 ± 8.1e-06 s⁻¹. Also, the “self-cleavage kobs at 640 uM GlcN6P” value with glucosamine-6-phosphate [5] is 8.78e-05 ± 7.6e-06 s⁻¹.
On to G29A G60C, for which the catalytic constant (kcat) with glucosamine-6-phosphate [1] is less than 1e-05 s⁻¹. The “self-cleavage kobs at 640 uM GlcN6P” value with glucosamine-6-phosphate [5] is less than 1e-05 s⁻¹. Moreover, the “self-cleavage kobs at 10000 uM GlcN6P” value with glucosamine-6-phosphate [7] was less than 1e-05 s⁻¹.
C16U A64U: the kcat with glucosamine-6-phosphate [1] stood at 9.47e-05 ± 1.3e-05 s⁻¹. In addition, in the series with glucosamine-6-phosphate [6], the “self-cleavage kobs at 2500 uM GlcN6P” value was 7.64e-05 ± 1.2e-05 s⁻¹. For the same variant, the “self-cleavage kobs at 10000 uM GlcN6P” value with glucosamine-6-phosphate [7] was 8e-05 ± 6.6e-06 s⁻¹.
Consider U45C C67A, for which the kcat with glucosamine-6-phosphate [1] was determined as 0.00652 ± 0.00083 s⁻¹. In the series with glucosamine-6-phosphate [2], the KM came to 2490 ± 470 µM. Also, in the series with glucosamine-6-phosphate [3], the “self-cleavage kobs at 40 uM GlcN6P” value came out at 0.000122 ± 4.8e-05 s⁻¹. Also, the “self-cleavage kobs at 160 uM GlcN6P” value with glucosamine-6-phosphate [4] stood at 0.000424 ± 0.00012 s⁻¹. The “self-cleavage kobs at 640 uM GlcN6P” value with glucosamine-6-phosphate [5] was 0.00119 ± 0.00026 s⁻¹. Besides, the “self-cleavage kobs at 2500 uM GlcN6P” value in the series with glucosamine-6-phosphate [6] worked out at 0.00392 ± 0.0013 s⁻¹. Moreover, in the series with glucosamine-6-phosphate [7], the “self-cleavage kobs at 10000 uM GlcN6P” value is 0.00519 ± 0.001 s⁻¹.
Consider U54C G66A, for which the kcat in the series with glucosamine-6-phosphate [1] was 0.011 ± 0.0023 s⁻¹. Moreover, the KM in the series with glucosamine-6-phosphate [2] amounted to 1100 ± 320 µM. The “self-cleavage kobs at 40 uM GlcN6P” value with glucosamine-6-phosphate [3] was 0.000397 ± 5.3e-05 s⁻¹. The “self-cleavage kobs at 160 uM GlcN6P” value with glucosamine-6-phosphate [4] is 0.00112 ± 0.0004 s⁻¹. Also, the “self-cleavage kobs at 640 uM GlcN6P” value with glucosamine-6-phosphate [5] was determined as 0.00522 ± 0.0011 s⁻¹. Further, the “self-cleavage kobs at 2500 uM GlcN6P” value with glucosamine-6-phosphate [6] came out at 0.00593 ± 0.0014 s⁻¹. Besides, the “self-cleavage kobs at 10000 uM GlcN6P” value with glucosamine-6-phosphate [7] was 0.0118 ± 0.0022 s⁻¹.
For the variant U30C A42G, the catalytic constant (kcat) with glucosamine-6-phosphate [1] came to 0.000456 ± 7.6e-05 s⁻¹. The KM with glucosamine-6-phosphate [2] is 1310 ± 520 µM. Moreover, the “self-cleavage kobs at 160 uM GlcN6P” value with glucosamine-6-phosphate [4] came to 7.93e-05 ± 2.8e-05 s⁻¹. Further, the “self-cleavage kobs at 640 uM GlcN6P” value in the series with glucosamine-6-phosphate [5] was 0.00012 ± 3.3e-05 s⁻¹. The “self-cleavage kobs at 2500 uM GlcN6P” value with glucosamine-6-phosphate [6] was 0.000368 ± 9.6e-05 s⁻¹. Also, in the series with glucosamine-6-phosphate [7], the “self-cleavage kobs at 10000 uM GlcN6P” value was determined as 0.0004 ± 5.9e-05 s⁻¹.
For the variant A33U G41A U54G, in the series with glucosamine-6-phosphate [1], the kcat is 3.66e-05 ± 1.4e-06 s⁻¹. In the series with glucosamine-6-phosphate [2], the KM was 2720 ± 360 µM. The “self-cleavage kobs at 10000 uM GlcN6P” value with glucosamine-6-phosphate [7] was 2.88e-05 ± 1.2e-05 s⁻¹.
As for C16U U30A G40A, in the series with glucosamine-6-phosphate [1], the catalytic constant (kcat) stood at 0.000118 ± 1.8e-05 s⁻¹. Further, the KM with glucosamine-6-phosphate [2] was determined as 1030 ± 380 µM. The “self-cleavage kobs at 40 uM GlcN6P” value with glucosamine-6-phosphate [3] is less than 1e-05 s⁻¹. Besides, the “self-cleavage kobs at 640 uM GlcN6P” value in the series with glucosamine-6-phosphate [5] is 4.8e-05 ± 2e-05 s⁻¹. In the series with glucosamine-6-phosphate [6], the “self-cleavage kobs at 2500 uM GlcN6P” value is 8.29e-05 ± 2.2e-05 s⁻¹.
Take C11A C71U: the kcat in the series with glucosamine-6-phosphate [1] was determined as 0.000122 ± 1.1e-05 s⁻¹. Also, the KM with glucosamine-6-phosphate [2] was determined as 451 ± 210 µM. In the series with glucosamine-6-phosphate [5], the “self-cleavage kobs at 640 uM GlcN6P” value was 7.03e-05 ± 1.1e-05 s⁻¹. Besides, the “self-cleavage kobs at 2500 uM GlcN6P” value with glucosamine-6-phosphate [6] was 0.000147 ± 2.3e-05 s⁻¹. Further, the “self-cleavage kobs at 10000 uM GlcN6P” value in the series with glucosamine-6-phosphate [7] was 0.000113 ± 8e-06 s⁻¹.
Regarding A42G A53C, the kcat in the series with glucosamine-6-phosphate [1] turned out to be 0.00933 ± 0.0027 s⁻¹. In the series with glucosamine-6-phosphate [2], the KM was 1540 ± 610 µM. Further, in the series with glucosamine-6-phosphate [3], the “self-cleavage kobs at 40 uM GlcN6P” value stood at 0.000286 ± 5.1e-05 s⁻¹. Moreover, the “self-cleavage kobs at 160 uM GlcN6P” value with glucosamine-6-phosphate [4] came out at 0.000666 ± 0.00018 s⁻¹. Also, the “self-cleavage kobs at 640 uM GlcN6P” value in the series with glucosamine-6-phosphate [5] was found to be 0.00271 ± 0.00065 s⁻¹. Moreover, the “self-cleavage kobs at 2500 uM GlcN6P” value with glucosamine-6-phosphate [6] is 0.0112 ± 0.0032 s⁻¹. In addition, the “self-cleavage kobs at 10000 uM GlcN6P” value with glucosamine-6-phosphate [7] is 0.0076 ± 0.0015 s⁻¹.
Turning to C8A C70U, in the series with glucosamine-6-phosphate [1], the kcat was less than 1e-05 s⁻¹. Besides, the “self-cleavage kobs at 160 uM GlcN6P” value with glucosamine-6-phosphate [4] was less than 1e-05 s⁻¹.
Consider A64U U65G, for which the kcat with glucosamine-6-phosphate [1] came out at 1.26e-05 ± 1e-06 s⁻¹.
As to A53U U56A, in the series with glucosamine-6-phosphate [1], the kcat was 0.00699 ± 0.0012 s⁻¹. Besides, in the series with glucosamine-6-phosphate [2], the KM is 1820 ± 450 µM. Moreover, the “self-cleavage kobs at 40 uM GlcN6P” value with glucosamine-6-phosphate [3] came out at 0.000172 ± 2.1e-05 s⁻¹. In addition, the “self-cleavage kobs at 160 uM GlcN6P” value in the series with glucosamine-6-phosphate [4] turned out to be 0.000573 ± 8e-05 s⁻¹. Further, the “self-cleavage kobs at 640 uM GlcN6P” value with glucosamine-6-phosphate [5] was 0.00169 ± 0.0002 s⁻¹. For the same variant, in the series with glucosamine-6-phosphate [6], the “self-cleavage kobs at 2500 uM GlcN6P” value came to 0.00313 ± 0.00052 s⁻¹. Also, the “self-cleavage kobs at 10000 uM GlcN6P” value with glucosamine-6-phosphate [7] was determined as 0.00667 ± 0.00065 s⁻¹.
Take U31G U49C U54A G63C C68G U69G: the kcat with glucosamine-6-phosphate [1] was 2.53e-05 ± 5.9e-06 s⁻¹. In the series with glucosamine-6-phosphate [3], the “self-cleavage kobs at 40 uM GlcN6P” value was less than 1e-05 s⁻¹.
